According to the supplement of paper PMC9233669:
This sample holds only a part of the variants without activity.

How the values were obtained:
biotinyl-Phe-oxazolone = test: self-aminoacylation, catalytic enhancement (BFO) (fold over background); higher = more active; k-Seq, kA / k0A0; sequences stand for … in GGGAAUGGAUCCACAUCUACGAAUUC…UUCACUGCAGACUUGACGAAGCUG
Method in brief: (§1)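 Mutagenized RNA pools with a 21-nt variable region (0.43 μM) were reacted with each biotinyl-aminoacyl-oxazolone at 2–1250 μM for 90 minutes at room temperature, in 50 μL HEPES/NaCl/KCl/MgCl2/CaCl2 buffer containing 5% acetonitrile at pH 6.9–7.0. RNA captured on streptavidin was quantified by triplicate qPCR and by Illumina sequencing. The fraction reacted for each sequence was fit to a pseudo-first-order model with bootstrapping, and catalytic enhancement is the median kA divided by the uncatalyzed rate, taken as the low-activity peak of a bimodal Gaussian fit.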

biotinyl-Ile-oxazolone = test: self-aminoacylation, catalytic enhancement (BIO) (fold over background); higher = more active; k-Seq, kA / k0A0; sequences stand for … in GGGAAUGGAUCCACAUCUACGAAUUC…UUCACUGCAGACUUGACGAAGCUG
Method in brief: as §1

biotinyl-Met-oxazolone = test: self-aminoacylation, catalytic enhancement (BMO) (fold over background); higher = more active; k-Seq, kA / k0A0; sequences stand for … in GGGAAUGGAUCCACAUCUACGAAUUC…UUCACUGCAGACUUGACGAAGCUG
Method in brief: as §1

biotinyl-Val-oxazolone = test: self-aminoacylation, catalytic enhancement (BVO) (fold over background); higher = more active; k-Seq, kA / k0A0; sequences stand for … in GGGAAUGGAUCCACAUCUACGAAUUC…UUCACUGCAGACUUGACGAAGCUG
Method in brief: as §1

biotinyl-Leu-oxazolone = test: self-aminoacylation, catalytic enhancement (BLO) (fold over background); higher = more active; k-Seq, kA / k0A0; sequences stand for … in GGGAAUGGAUCCACAUCUACGAAUUC…UUCACUGCAGACUUGACGAAGCUG
Method in brief: as §1

biotinyl-Trp-oxazolone = test: self-aminoacylation, catalytic enhancement (BWO) (fold over background); higher = more active; k-Seq, kA / k0A0; sequences stand for … in GGGAAUGGAUCCACAUCUACGAAUUC…UUCACUGCAGACUUGACGAAGCUG
Method in brief: as §1

| Sequence | self-aminoacylation (biotinyl-Phe-oxazolone) | self-aminoacylation (biotinyl-Ile-oxazolone) | self-aminoacylation (biotinyl-Met-oxazolone) | self-aminoacylation (biotinyl-Val-oxazolone) | self-aminoacylation (biotinyl-Leu-oxazolone) | self-aminoacylation (biotinyl-Trp-oxazolone) |
| --- | --- | --- | --- | --- | --- | --- |
| AAGUUCGCUACUAGUCGCAAG [Fam3.1 aminoacylation ribozyme variant] | 2.28 | 2.08 | 1.67 | 1.79 | 1.5 | 1.34 |
| CUACUUCAACCCAUCGGUCUG [Fam1A.1 aminoacylation ribozyme variant] | 0.647 | 0.983 | 0.722 | 0.983 | 0.943 | 0.838 |
| AUUCACAUAGGUCAACGGGUG [Fam2.2 aminoacylation ribozyme variant] | 28.8 | 2.85 | 4.31 | 2.81 | 5.9 | 4.39 |
| CUUACCCUGGUCAUCUAGUGA [Fam2.1 aminoacylation ribozyme variant] | 29.7 | 3.75 | 7.9 | 3.89 | 8.12 | 10.4 |
| CCACACUUCACGCAACCGGUC [Fam1B.1 aminoacylation ribozyme variant] | 0.978 | 1.24 | 1.21 | 1.55 | 1.55 | 0.831 |
| AUUCACCUAGGUCUUCGGUUG [Fam2.2 aminoacylation ribozyme variant] | 9.48 | 1.55 | 1.76 | 1.41 | 1.75 | 1.72 |
| UCACACUCCAAGCAAUCGGUC [Fam1B.1 aminoacylation ribozyme variant] | 2.4 | 0.885 | 0.825 | 1.13 | 0.792 | 1.44 |
| UUACUUCAAACAAUCGGUUUG [Fam1A.1 aminoacylation ribozyme variant] | 31.5 | 1.59 | 1.48 | 1.24 | 1.86 | 20.3 |
| AUUAUCCUGGUCAUCGAGAGA [Fam2.1 aminoacylation ribozyme variant] | 1.15 | 1.08 | 0.869 | 0.989 | 0.847 | 0.862 |
| CCACACUUCAAGUCAUCGGUC [Fam1B.1 aminoacylation ribozyme variant] | 0.991 | 1.05 | 1.04 | 1.32 | 1.31 | 0.698 |
| CCACACUUAAAGCAAACGGUC [Fam1B.1 aminoacylation ribozyme variant] | 0.924 | 0.685 | 0.502 | 0.765 | 0.616 | 0.578 |
| AUUCACCUCGGUCAUCGGGAG [Fam2.2 aminoacylation ribozyme variant] | 0.478 | 1.02 | 1.39 | 1.22 | 1.63 | 1.17 |
| CCACACUUCAAACAAACGGUC [Fam1B.1 aminoacylation ribozyme variant] | 0.66 | 0.692 | 0.626 | 0.697 | 0.598 | 0.471 |
| AUUCACCUAGCUCAUCGGAUG [Fam2.2 aminoacylation ribozyme variant] | 0.472 | 0.779 | 0.609 | 0.82 | 0.772 | 0.452 |
| CCACACUUCGAGCGAUCGGUC [Fam1B.1 aminoacylation ribozyme variant] | 2.95 | 1.43 | 1.64 | 1.69 | 1.86 | 1.38 |
| CGACUUCAAACAAUCGCUCUG [Fam1A.1 aminoacylation ribozyme variant] | 3.61 | 1.42 | 1.36 | 1.24 | 1.42 | 3.07 |
| AUUCACCUAGGUCAUCGCGUA [Fam2.2 aminoacylation ribozyme variant] | 19.4 | 3.2 | 3.71 | 2.89 | 4.3 | 6.08 |
| GCACACUUUAAGCAAUCGGUC [Fam1B.1 aminoacylation ribozyme variant] | 1.39 | 1.3 | 1.04 | 1.17 | 1.11 | 1.44 |
| AAGUUUGCUAAUAGUCGCUAC [Fam3.1 aminoacylation ribozyme variant] | 0.82 | 0.54 | 0.57 | 0.697 | 0.476 | 0.666 |
| ACCCACUUCAAGCAAUCGGUC [Fam1B.1 aminoacylation ribozyme variant] | 23.3 | 1.11 | 1.15 | 1.29 | 1.37 | 15.2 |
| AUUCACCGAGGUCAUAGGGUG [Fam2.2 aminoacylation ribozyme variant] | 7.43 | 1.71 | 2.29 | 1.91 | 3.17 | 2.21 |
| AUUACCCUGUCCAUCGAGUGA [Fam2.1 aminoacylation ribozyme variant] | 70.4 | 5.63 | 10.6 | 5.38 | 11.3 | 14.8 |
| AAGUUGGCUAAUACUCGCAAG [Fam3.1 aminoacylation ribozyme variant] | 1.44 | 1.39 | 1.2 | 1.39 | 0.979 | 1.45 |
| AUUACCCUGGUCAGCAAGUGA [Fam2.1 aminoacylation ribozyme variant] | 9.67 | 2.95 | 4.16 | 2.61 | 4 | 4.8 |
| AUUCGCCUAGAUCAUCGGGUG [Fam2.2 aminoacylation ribozyme variant] | 19.1 | 2.08 | 2.69 | 2.27 | 4.04 | 3.12 |
| CUACUACAAACAAUCGGUCAG [Fam1A.1 aminoacylation ribozyme variant] | 0.636 | 0.561 | 0.547 | 0.646 | 0.414 | 0.537 |

| Sequence | self-aminoacylation (biotinyl-Phe-oxazolone) | self-aminoacylation (biotinyl-Ile-oxazolone) | self-aminoacylation (biotinyl-Met-oxazolone) | self-aminoacylation (biotinyl-Val-oxazolone) | self-aminoacylation (biotinyl-Leu-oxazolone) | self-aminoacylation (biotinyl-Trp-oxazolone) |
| --- | --- | --- | --- | --- | --- | --- |
| CCACACUUCAGGCAAUCGAUC [Fam1B.1 aminoacylation ribozyme variant] | 0.731 | 0.813 | 0.634 | 0.892 | 0.591 | 0.804 |
| CUACUUCAAACAAUCGUCCUG [Fam1A.1 aminoacylation ribozyme variant] | 0.798 | 0.562 | 0.407 | 0.791 | 0.394 | 0.491 |
| AUUAUCCUGGUCAUCGUGUGA [Fam2.1 aminoacylation ribozyme variant] | 28.6 | 2.15 | 3.54 | 2.05 | 3.83 | 5.91 |
| GUACUUCAAACAAUCGGUCUC [Fam1A.1 aminoacylation ribozyme variant] | 39.5 | 1.5 | 1.65 | 1.4 | 2.06 | 26.5 |
| CCACACUUCUAGCAAUCUGUC [Fam1B.1 aminoacylation ribozyme variant] | 0.693 | 0.424 | 0.378 | 0.502 | 0.354 | 0.292 |
| AUUACCCUCGUGAUCGAGUGA [Fam2.1 aminoacylation ribozyme variant] | 70.3 | 4.47 | 10.4 | 4.09 | 11.6 | 10.8 |
| AUUCACCUAGGUCAUCCGCUG [Fam2.2 aminoacylation ribozyme variant] | 9.5 | 2.23 | 1.73 | 1.89 | 2.54 | 1.25 |
| AUUACCCUGGUCAACGAGUCA [Fam2.1 aminoacylation ribozyme variant] | 0.683 | 1.14 | 1.05 | 0.969 | 0.745 | 0.482 |
| AUUCACCUAGGUCACCAGGUG [Fam2.2 aminoacylation ribozyme variant] | 1.24 | 1.51 | 1.51 | 1.49 | 1.61 | 1.64 |
| AAGUUUGCUCAUAGUCUCAAG [Fam3.1 aminoacylation ribozyme variant] | 1.98 | 0.872 | 0.869 | 0.901 | 0.977 | 0.98 |
| CCACACUUCAACGAAUCGGUC [Fam1B.1 aminoacylation ribozyme variant] | 11.2 | 0.873 | 1.03 | 1.09 | 0.962 | 9.08 |
| AAGUUCGUUAAUAGUCGCAAG [Fam3.1 aminoacylation ribozyme variant] | 3.09 | 1.93 | 1.77 | 1.53 | 1.94 | 1.56 |
| AAGUUUGCUAAUAGACGCGAG [Fam3.1 aminoacylation ribozyme variant] | 0.443 | 0.793 | 0.912 | 0.64 | 0.619 | 0.812 |
| CAGUUUGCUAAUAGUCGCCAG [Fam3.1 aminoacylation ribozyme variant] | 10.1 | 1.86 | 1.91 | 2.17 | 2.43 | 2.45 |
| AUUCACCUAGGUCAUCGAGUG [Fam2.2 aminoacylation ribozyme variant] | 35.7 | 10.8 | 14.3 | 8.76 | 19.3 | 8.05 |
| CUACUUCAAAAAGUCGGUCUG [Fam1A.1 aminoacylation ribozyme variant] | 0.598 | 0.876 | 0.856 | 0.773 | 0.779 | 0.579 |
| CUACUUCAAACAAUCGGGCUC [Fam1A.1 aminoacylation ribozyme variant] | 5.16 | 1.01 | 1.08 | 1.17 | 0.971 | 2.48 |
| CUACUUCUAACGAUCGGUCUG [Fam1A.1 aminoacylation ribozyme variant] | 0.785 | 0.675 | 0.747 | 0.688 | 0.622 | 0.505 |
| CCACACUUCAACCAAUCGGAC [Fam1B.1 aminoacylation ribozyme variant] | 2.28 | 0.897 | 0.789 | 1.02 | 0.981 | 1.26 |
| AGUCACCUAGGCCAUCGGGUG [Fam2.2 aminoacylation ribozyme variant] | 25 | 3.31 | 3.86 | 3.96 | 3.53 | 5.32 |
| AAGUUUGCUAAUCGUCGUAAG [Fam3.1 aminoacylation ribozyme variant] | 6.16 | 0.808 | 0.85 | 0.947 | 0.75 | 2.06 |
| AAGUUUGCUAAACGUCGCAAG [Fam3.1 aminoacylation ribozyme variant] | 0.887 | 0.739 | 0.608 | 0.542 | 0.537 | 0.603 |
| AUUCACCUUGGUCAUCGAGUG [Fam2.2 aminoacylation ribozyme variant] | 8.55 | 2.69 | 3.96 | 2.49 | 4.66 | 3.59 |
| AAGUUUGUUAAUACUCGCAAG [Fam3.1 aminoacylation ribozyme variant] | 1.07 | 0.893 | 0.692 | 0.81 | 0.76 | 0.7 |
| AUUCACCUAUGUCAUCGGAUG [Fam2.2 aminoacylation ribozyme variant] | 0.61 | 0.826 | 0.581 | 0.758 | 0.606 | 0.502 |
